Measured values reported in patent US20130171236A1, “Prevention and Treatment of Ischemia-Reperfusion Injury and Related Conditions” (MEDICAL UNIVERSITY OF SOUTH CAROLINA, priority 2006, published 2013).

Legend:
C57B1/6 mice [1] = assay: Intestinal ischemia-reperfusion injury model in immune competent mice; type: in vivo; details: injected right before the reperfusion phase, FIG. 9
Protocol: To address this issue, the inventors created compounds that could block the effects of the monoclonal antibodies. This concept was first tested with the antibodies recognizing phospholipids, and liposomes were created composed of cholesterol and the phospholipids phosphatidylcholine and phosphoglycerol.
Wild type C57BL/6 are utilized for these studies. The ischemia-reperfusion model is performed as outlined briefly. Anesthesia is induced with ketamine (16 mg/kg) and xylazine (8 mg/kg) administered by intramuscular injection. All procedures are performed with the animals breathing spontaneously and body temperature maintained at 37° C. using a water-circulating heating pad. To induce ischemia-reperfusion injury, a midline laparotomy is performed prior to a 30 minute equilibration period. […] After this ischemic phase, the clamp is removed under direct visualization and the intestine allowed to perfuse for 2 hours. […] The laparotomy incisions are then sutured and the animals monitored during the reperfusion period. […]
For histology and immunohistochemistry, immediately after euthansia segments of small intestine specimens are fixed in 10% buffered formalin. […] In addition, the villus height of at least 10 villi from the same section is measured using an ocular micrometer. […]

C57B1/6 mice [2] = assay: MCAO ischemic stroke and reperfusion in C57B1/6 mice, treatment; type: in vivo; details: 100 μg i.v. at 30 min post reperfusion
Protocol: Eight week old male C57B1/6 and C57B1/6 C3 deficient mice (Jackson labs, Bar Harbor, Me.) were used in experiments. Mice were anesthetized with chloral hydrate (350 mg/kg) and xylazine (4 mg/kg) i.p., and the left common carotid artery of each mouse was exposed through a mid-line incision in the neck. […] The distal end of the ECA was ligated with 6-0 silk and transected, and 6-0 silk was tied loosely around the ECA stump. The clip was then removed, and the blunted tip of a 4-0 nylon suture was inserted into the ECA stump. The loop of the 6-0 silk was tightened around the stump, and the nylon suture advanced into and through the internal carotid artery until it rested in the anterior cerebral artery. After the nylon suture had been placed for 60 minutes, it was pulled back into the ECA, and the incision closed. […]
Infarct volume was measured by TTC staining and volume calculated using image analysis.
Animals were monitored for 24 hours post reperfusion and clinical assessed for neurological deficit. Behavioral/neurological deficit was scored as follows: 0, normal motor function; 1, flexion of torso and contralateral forelimb when animal is lifted by the tail; 2, circling to the contralateral side when held by tail on flat surface, but normal posture at rest; 3, leaning to the contralateral side at rest; 4, no spontaneous motor activity. […]

B1: annexin IV: recombinant annexin IV, a phospholipid binding protein, prepared as in Example 2 (protein, listed as Homo sapiens)
chain: MATKGGTVKAASGFNAMEDAQTLRKAMKGLGTDEDAIISVLAYRNTAQRQEIRTAYKSTIGRDLIDDLKSELSGNFEQVIVGMMTPTVLYDVQELRRAMKGAGTDEGCLIEILASRTPEEIRRISQTYQQQYGRSLEDDIRSDTSFMFQRVLVSLSAGGRDEGNYLDDALVRQDAQDLYEAGEKKWGTDEVKFLTVLCSRNRNHLLHVFDEYKRISQKDIEQSIKSETSGSFEDALLAIVKCMRNKSAYFAEKLYKSMKGLGTDDNTLIRVMVSRAEIDMLDIRAHFKRLYGKSLYSFIKGDTSGDYRKVLLVLCGGDD
C57B1/6 mice [1]
  intestinal ischemia-reperfusion injury: nearly completely protected mice from ischemia-reperfusion injury
C57B1/6 mice [1]; listed as recombinant annexin IV
  intestinal ischemia-reperfusion injury: reduces the level of intestinal ischemia reperfusion injury
C57B1/6 mice [2]; 24 hours, FIG. 8
  neurological deficit: significant reduction in neurological deficit
C57B1/6 mice [2]; FIG. 7
  cerebral infarct volume (TTC): significantly protects against cerebral infarct
